B1: mouse monoclonal antibody #23-57-137-1 against human PTHrP (1-34) (antibody, V domains shown)
VH: EVQLVESGGDLVKPGGSLKLSCAASGFTFSSYGMSWIRQTPDKRLEWVATISSGGSYTYYPDSVKGRFTISRDNAKNTLYLQMSSLKSEDTAMFYCARQTTMTYFAYWGQGTLVTVSA
VL: QLVLTQSSSASFSLGASAKLTCTLSSQHSTYTIEWYQQQPLKPPKYVMDLKQDGSHSTGDGIPDRFSGSSSGADRYLSISNIQPEDEAMYICGVGDTIKEQFVYVFGGGTKVTVLG
notes: Mouse antibody from hybridoma culture supernatant; mouse lambda L-chain; H-chain cloned with an MHC-G1 primer
B2: humanized #23-57-137-1 antibody having L-chain version "s" (antibody, V domains shown)
VH: QVQLVESGGGVVQPGRSLRLSCAASGFTFSSYGMSWVRQAPGKGLEWVATISSGGSYTYYPDSVKGRFTISRDNSKNTLYLQMNSLRAEDTAVYYCARQTTMTYFAYWGQGTLVTVSS
VL: QLVLTQSPSASASLGASVKLTCTLSSQHSTYTIEWYQQQPEKGPKYVMDLKQDGSHSTGDGIPDRFSGSSSGAERYLTISSLQSEDEADYICGVGDTIKEQFVYVFGGGTKLTVLG
notes: Humanized H-chain version a with human Cgamma1; human lambda C-region; COS-7 expressed; also called hMBC1HcDNA/pCOS1 and hMBC1Lsλ/pCOS1
B3: antibody having both a humanized H-chain version "a" and a chimeric L-chain (antibody, V domains shown)
VH: QVQLVESGGGVVQPGRSLRLSCAASGFTFSSYGMSWVRQAPGKGLEWVATISSGGSYTYYPDSVKGRFTISRDNSKNTLYLQMNSLRAEDTAVYYCARQTTMTYFAYWGQGTLVTVSS
VL: QLVLTQSSSASFSLGASAKLTCTLSSQHSTYTIEWYQQQPLKPPKYVMDLKQDGSHSTGDGIPDRFSGSSSGADRYLSISNIQPEDEAMYICGVGDTIKEQFVYVFGGGTKVTVLG
notes: Human Cgamma1 H-chain C-region
B4: humanized #23-57-137-1 antibody having L-chain version "j" (antibody, V domains shown)
VH: QVQLVESGGGVVQPGRSLRLSCAASGFTFSSYGMSWVRQAPGKGLEWVATISSGGSYTYYPDSVKGRFTISRDNSKNTLYLQMNSLRAEDTAVYYCARQTTMTYFAYWGQGTLVTVSS
VL: QLVLTQSPSASASLGASVKLTCTLSSQHSTYTIEWYQQQPEKGPKYLMDLKQDGSHSTGDGIPDRFSGSSSGAERYLTISSLQSEDEADYYCGVGDTIKEQFVYVFGGGTKLTVLG
notes: Humanized H-chain version a with human Cgamma1; human lambda C-region; COS-7 expressed; also called hMBC1HcDNA/pCOS1 and hMBC1Ljλ/pCOS1
B5: humanized #23-57-137-1 antibody having L-chain version "l" (antibody, V domains shown)
VH: QVQLVESGGGVVQPGRSLRLSCAASGFTFSSYGMSWVRQAPGKGLEWVATISSGGSYTYYPDSVKGRFTISRDNSKNTLYLQMNSLRAEDTAVYYCARQTTMTYFAYWGQGTLVTVSS
VL: QLVLTQSPSASASLGASVKLTCTLSSQHSTYTIEWYQQQPEKGPKYVMDLKQDGSHSTGDGIPDRFSGSSSGAERYLTISSLQSEDEADYYCGVGDTIKEQFVYVFGGGTKLTVLG
notes: Humanized H-chain version a with human Cgamma1; human lambda C-region; COS-7 expressed; also called hMBC1HcDNA/pCOS1 and hMBC1Llλ/pCOS1
B6: humanized #23-57-137-1 antibody having L-chain version "m" (antibody, V domains shown)
VH: QVQLVESGGGVVQPGRSLRLSCAASGFTFSSYGMSWVRQAPGKGLEWVATISSGGSYTYYPDSVKGRFTISRDNSKNTLYLQMNSLRAEDTAVYYCARQTTMTYFAYWGQGTLVTVSS
VL: QLVLTQSPSASASLGASVKLTCTLSSQHSTYTIEWYQQQPEKGPRYLMDLKQDGSHSTGDGIPDRFSGSSSGAERYLTISSLQSEDEADYYCGVGDTIKEQFVYVFGGGTKLTVLG
notes: Humanized H-chain version a with human Cgamma1; human lambda C-region; COS-7 expressed; also called hMBC1HcDNA/pCOS1 and hMBC1Lmλ/pCOS1
B7: humanized #23-57-137-1 antibody having L-chain version "o" (antibody, V domains shown)
VH: QVQLVESGGGVVQPGRSLRLSCAASGFTFSSYGMSWVRQAPGKGLEWVATISSGGSYTYYPDSVKGRFTISRDNSKNTLYLQMNSLRAEDTAVYYCARQTTMTYFAYWGQGTLVTVSS
VL: QLVLTQSPSASASLGASVKLTCTLSSQHSTYTIEWYQQQPEKGPRYVMDLKQDGSHSTGDGIPDRFSGSSSGAERYLTISSLQSEDEADYYCGVGDTIKEQFVYVFGGGTKLTVLG
notes: Humanized H-chain version a with human Cgamma1; human lambda C-region; COS-7 expressed; also called hMBC1HcDNA/pCOS1 and hMBC1Loλ/pCOS1
B8: humanized #23-57-137-1 antibody having L-chain version "q" (antibody, V domains shown)
VH: QVQLVESGGGVVQPGRSLRLSCAASGFTFSSYGMSWVRQAPGKGLEWVATISSGGSYTYYPDSVKGRFTISRDNSKNTLYLQMNSLRAEDTAVYYCARQTTMTYFAYWGQGTLVTVSS
VL: QLVLTQSPSASASLGASVKLTCTLSSQHSTYTIEWYQQQPEKGPKYLMDLKQDGSHSTGDGIPDRFSGSSSGAERYLTISSLQSEDEADYICGVGDTIKEQFVYVFGGGTKLTVLG
notes: Humanized H-chain version a with human Cgamma1; human lambda C-region; COS-7 expressed (also CHO); also called hMBC1HcDNA/pCOS1 and hMBC1Lqλ/pCOS1
B9: humanized #23-57-137-1 antibody having L-chain version "r" (antibody, V domains shown)
VH: QVQLVESGGGVVQPGRSLRLSCAASGFTFSSYGMSWVRQAPGKGLEWVATISSGGSYTYYPDSVKGRFTISRDNSKNTLYLQMNSLRAEDTAVYYCARQTTMTYFAYWGQGTLVTVSS
VL: QLVLTQSPSASASLGASVKLTCTLSSQHSTYTIEWYQQQPEKGPRYLMDLKQDGSHSTGDGIPDRFSGSSSGAERYLTISSLQSEDEADYICGVGDTIKEQFVYVFGGGTKLTVLG
notes: Humanized H-chain version a with human Cgamma1; human lambda C-region; COS-7 expressed (also CHO); also called hMBC1HcDNA/pCOS1 and hMBC1Lrλ/pCOS1
B10: humanized #23-57-137-1 antibody having L-chain version "t" (antibody, V domains shown)
VH: QVQLVESGGGVVQPGRSLRLSCAASGFTFSSYGMSWVRQAPGKGLEWVATISSGGSYTYYPDSVKGRFTISRDNSKNTLYLQMNSLRAEDTAVYYCARQTTMTYFAYWGQGTLVTVSS
VL: QLVLTQSPSASASLGASVKLTCTLSSQHSTYTIEWYQQQPEKGPRYVMDLKQDGSHSTGDGIPDRFSGSSSGAERYLTISSLQSEDEADYICGVGDTIKEQFVYVFGGGTKLTVLG
notes: Humanized H-chain version a with human Cgamma1; human lambda C-region; COS-7 expressed; also called hMBC1HcDNA/pCOS1 and hMBC1Ltλ/pCOS1
B11: chimeric #23-57-137-1 antibody with L-chain lambda chain C-region (antibody, V domains shown)
VH: EVQLVESGGDLVKPGGSLKLSCAASGFTFSSYGMSWIRQTPDKRLEWVATISSGGSYTYYPDSVKGRFTISRDNAKNTLYLQMSSLKSEDTAMFYCARQTTMTYFAYWGQGTLVTVSA
VL: QLVLTQSSSASFSLGASAKLTCTLSSQHSTYTIEWYQQQPLKPPKYVMDLKQDGSHSTGDGIPDRFSGSSSGADRYLSISNIQPEDEAMYICGVGDTIKEQFVYVFGGGTKVTVLG
notes: Mouse V-regions joined to human H-chain C-region Cgamma1 and human lambda C-region (isotype Mcg+Ke+Oz-, EMBL X57819); expressed in COS-7 cells; also called chimeric antibody; MBC1HcDNA/pCOS1 and MBC1L(λ)/neo
B12: chimeric #23-57-137-1 antibody with L-chain kappa chain C-region (antibody, V domains shown)
VH: EVQLVESGGDLVKPGGSLKLSCAASGFTFSSYGMSWIRQTPDKRLEWVATISSGGSYTYYPDSVKGRFTISRDNAKNTLYLQMSSLKSEDTAMFYCARQTTMTYFAYWGQGTLVTVSA
VL: QLVLTQSSSASFSLGASAKLTCTLSSQHSTYTIEWYQQQPLKPPKYVMDLKQDGSHSTGDGIPDRFSGSSSGADRYLSISNIQPEDEAMYICGVGDTIKEQFVYVFGGGTKVTVLG
notes: Mouse V-regions joined to human H-chain C-region Cgamma1 and human kappa C-region (from plasmid HEF-PM1k-gk); expressed in COS-7 cells; also called chimeric antibody; MBC1HcDNA/pCOS1 and MBC1L(κ)/neo
B13: human FR1/mouse FR2,3,4 hybrid antibody, L-chain hmmMBC1L(λ) (antibody, V domains shown)
VH: QVQLVESGGGVVQPGRSLRLSCAASGFTFSSYGMSWVRQAPGKGLEWVATISSGGSYTYYPDSVKGRFTISRDNSKNTLYLQMNSLRAEDTAVYYCARQTTMTYFAYWGQGTLVTVSS
VL: QLVLTQSPSASASLGASVKLTCTLSSQHSTYTIEWYQQQPLKPPKYVMDLKQDGSHSTGDGIPDRFSGSSSGADRYLSISNIQPEDEAMYICGVGDTIKEQFVYVFGGGTKVTVL
notes: H-chain from hMBC1HcDNA/pCOS1 (humanized version a, human Cgamma1); human lambda C-region; also called FR1/FR2 hybrid antibody
B14: mouse FR1,2/human FR3,4 hybrid antibody, L-chain m/hMBC1Laλ (antibody, V domains shown)
VH: QVQLVESGGGVVQPGRSLRLSCAASGFTFSSYGMSWVRQAPGKGLEWVATISSGGSYTYYPDSVKGRFTISRDNSKNTLYLQMNSLRAEDTAVYYCARQTTMTYFAYWGQGTLVTVSS
VL: QLVLTQSSSASFSLGASAKLTCTLSSQHSTYTIEWYQQQPLKPPKYVMDLKQDGSHSTGDGIPDRFSGSSSGAERYLTISSLQSEDEADYYCGVGDTIKEQFVYVFGGGTKLTVL
notes: H-chain from hMBC1HcDNA/pCOS1 (humanized version a, human Cgamma1); human lambda C-region

Each binder was assayed against T1, human PTHrP (1-34) (human) (assay: solid phase RIA of hybridoma culture supernatant).
T1 construct: Synthetic peptide (Peninsula; Peptide Research Institute), coated on ELISA plates at 1 ug/ml; added at 1 ng/ml final in the cAMP assay; also called parathyroid hormone related peptide (1-34)
Text: The hybridomas thus obtained was suspended into RPMI-1640 medium containing 15% FCS supplemented with OPI-supplement (Sigma), followed by unification of the hybridomas by limiting dilution method.

Binding result, binds:
B1

What follows are binders tested against T1, human PTHrP (1-34) (assay: ELISA, plate coated with human PTHrP (1-34)).
Description: An ELISA plate for determining antigen-binding ability was prepared as follows. Each well of a 96-well ELISA plate (Maxisorp, NUNC) was coated with 100 μl of a coating buffer containing 1 μg/ml of human PTHrP (1-34) and then blocked with 200 μl of a dilution buffer. Subsequently, each well was added with each of the serial dilutions of the COS-7 cell culture supernatant in which each of the hybrid antibodies and humanized antibodies was expressed, or added with each of the serial dilutions of each of the hybrid antibodies and humanized antibodies in a purified form. The plate was incubated at room temperature and washed with PBS-Tween 20. Subsequently, each well was added with 100 μl of alkaline phosphatase-conjugated goat anti-human IgG antibody (TAGO). The plate was incubated at room temperature and washed with PBS-Tween 20. Subsequently, each well was added with 1 mg/ml of a substrate solution (“Sigma 104”, p-nitrophenylphosphoric acid, SIGMA). The solution was measured on its absorbance at 405 nm using Microplate Reader (Bio Rad).

Binding result, binds:
B2
B3
B4
B5
B6
B7
B8
B9
B10
B11
B12
B13
B14

— patent US20030049211A1 (published 2003)
